In the DeepSol protein solubility set:

Assay: soluble on expression in E. coli; label from the status in PepcDB or PDB records

Sequence	soluble on expression in E. coli
MSEDGLKVSVLASGSTGNVTYIETPERKVLVDAGLSGKKIAGLMDSVGRDISEVDSLFVTHEHSDHIQSVGVLARKYGIDIYANQGTWDAIGGKIGKVPTEQKFIFDPNTTKSLDDLDIESFSVSHDAAEPQFYEFHHAGKSFVILTDTGYVSDRIAGTIRNADGYLFEVNHDTEMLRMGGYPWPLKQRIMGDHGHLSNEDGANALMDVIGNRTKKIYLGHLSLHNNMKELAHLTVTSMMQNHDLAVGHDFEILDTDHKIADPLTLILEHHHHHH	soluble
MAHHHHHHMTSQTTTAVFSSDLQTFIVTKYDPLLSIVKELNDKLQNSEKDKYHLEKRIIKLEKQMVLLLEKLEVSDILFDNEEKEKKEEPRKNQKIESEENLLAPWLFSCQLGTPLSSLQVLLEFNVNNTIELNVKLWKREEDMWINVLEDISSNYNNYLPDSLSLLDLRKAARKCLLNICMNEILIVLRNVPGKSQALYNTTTMTLVAILASAIYEAWKRIELTDPVSLGRIVLVLDGMNCINKKREDVGSRLRAGNKKLKIEPLN	not soluble
MAKEGSVAPKERINVTFKPATGGNQEEIELPLKLLAIGDYTHRRDERKVEDRKPISIDKTTFDEVLAKQELELTLSVPNRLQDEEGVAEELPVKLRVNSMKDFNPASLVEQVPELKKLMELRDALVALKGPLGNAPAFRKAIEGVLADDESRGRVLGELGLKAPAPDA	not soluble
MARKNQKAPWEPEEEIIWVSKSEMKRDMEELQKLGEELVGLKPAVLEKFPLSEDLREAIADAQRFKNEARRRQLQRIGKLMRYEDPEPIQAALDKVRNKHSQATAALHKLEMLRDRVVEEGDKAIDDVMELYPEADRQRLRQLARQAAKEKKAGKPAKSYREIFQILKALNEEE	soluble
MKFAVSSKGDQVSDTLKSKIQAYLLDFDMELDENEPEIVISVGGDGTLLYAFHRYSDRLDKTAFVGVHTGHLGFYADWVPHEIEKLVLAIAKTPYHTVEYPLLEVIVTYHENEREERYLALNECTIKSIEGSLVADVEIKGQLFETFRGDGLCLSTPSGSTAYNKALGGAIIHPSIRAIQLAEMASINNRVFRTVGSPLLLPSHHDCMIKPRNEVDFQVTIDHLTLLHKDVKSIRCQVASEKVRFARFRPFPFWKRVQDSFIGKGELEHHHHHH	soluble
MSAESERKTETIPEWKQEEVDAIVEMIESYESVGVVNIAGIPSRQLQDMRRDLHGTAELRVSRNTLLERALDDVDDGLEDLNGYITGQVGLIGTDDNPFSLFQELEASKTPAPIGAGEVAPNDIVIPEGDTGVDPGPFVGELQSVGADARIQEGSIQVLSDSTVLDTGEEVSQELSNVLNELGIEPKEVGLDLRAVFADGVLFEPEELELDIDEYRSDIQAAAGRAFNLSVNADYPTATTAPTMLQSDRGNAKSLALQAAIEDPEVVPDLVSKADAQVRALASQIDDEEALPEELQGVEADVATEEPTDDQDDDTASEDDADADDAAEEADDDDDDDEDAGDALGAMF	soluble
MIAILTDKPNVGKEIARILGAHTREDGYMSGNGYMVTWTFGNMLSLAMPKDYGMDRPERGDFPINPAPFRLMVKHIKTDTGWIPDINAVLQLKVIEKVFDACESIIAATDASREGEMVFRYLYRYLECRKSYRRLWISSLTDEAVLEGMDNLRPGSLYDHMFLAADSRNKADWVLGLNASYALCQATGTGNNSLGRVQTPILAAISSRYRERENHIATDTFPVFISLCKNNTLLKMRCTEEFTDREAAARLYSDCKLAGHARVTAVSRQVREIEPPALYNLTELQKDANNYYGMTAGKSLEIAQKLYEKKLISYPRTAGRFLPRDVYDKLPRIMEKILNRKEFRPYVRSMGINIFDLPDKVVDEGQAAEHHAIIITDTYPEGLNREEMQLYMMIIGRMLEAFMPVCRAEYTTVDAVCAARNFRCHACRIIEKGWFGIFERESVIAGREYGFSPIPQLENGETAAVTGCSLIHRKDLTVSAYTDAELITYMDTAGLGTAATRTGILQTLIDRKYVRYSGKYIIPTRKGLYIYETVRNMKIAETALTSGWEAQLARMERGKLTQEEFMKGVLKLSREVTEDIFRKCER	not soluble
TPHLVNLNEDPLMSECLLYYIKDGITRVGQADAERRQDIVLSGAHIKEEHCIFRSERSNSGEVIVTLEPCERSETYVNGKRVSQPVQLRSGNRIIMGKNHVFRFNHPEQARAEREKT	soluble
MTQLWVERTGTRRYIGRSTRGAQVLVGSEDVDGVFTPGELLKIALAACSGMASDQPLARRLGDDYQAVVKVSGAADRDQERYPLIEETMELDLSGLTEDEKERLLVVINRAVELACTVGRTLKSGTTVNLEVVDVGA	not soluble
MGSDKIHHHHHHVGAGHPRKELEGKAKATKQQQDLKKLLSGQKHVAFPQQVVALPFDASANLTALVYEPLLPLQYSDYKGAQLITGLRKIHEKNVVHGDISVRNIMQSKQGVAKFIDLNPMDPLSESKKSRDIRYLGKSLLEMKFAKSLEQENHRMLSYIAKHEDIYSKAQSNQAYQELKYNNAWFTYSLTQSGSIEKVPGDMDTFLELLGMEEIIKRDLEKQAGEVFSFDGKFAKFISEQPDPENTDFTAMALYMLEHGQIPNNADGILAKLLRVKQ	not soluble
MEKELDLSQYSVRTDLAVEAKDIALENQPKPNNQSEIKGVIVKEKEEQGVKISMVEITEEGAEAIGKKKGRYVTLESVGIREQDTEKQEEAMEEVFAKELNFFIKSLNIPDDASCLVVGLGNLSVTPDALGPKAVDNLLITRHLFELQPESVQDGFRPVSAIVPGVMGMTGIETSDIIFGVVKKVNPDFIIAIDALAARSIERVNATIQISDSGIHPGSGVGNKRKEISYETLGIPVIAIGIPTVVDAVSITSDTIDFILKHFGREMKEQGKPSKSLLPSGMTFGEKKKLTEDDLPNEEQRQTYLGMIGTLPDEEKRRLIHEVLAPLGHNLMVTPKEVDMFIEDMANVVAGGLNAALHHEVDQENFGAYTH	soluble
MSQSRHRAEAPPLEREDSGTFSLGKMITAKPGKTPIQVLHEYGMKTKNIPVYECERSDVQIHVPTFTFRVTVGDITCTGEGTSKKLAKHRAAEAAINILKANASICFAVPDPLMPDPSKQPKNQLNPIGSLQELAIHHGWRLPEYTLSQEGGPAHKREYTTICRLESFMETGKGASKKQAKRNAAEKFLAKFSNISPENHISLTNVVGHSLGCTWHSLRNSPGEKINLLKRSLLSIPNTDYIQLLSEIAKEQGFNITYLDIDELSANGQYQCLAELSTSPITVCHGSGISCGNAQSDAAHNALQYLKIIAERK	soluble
MEIRYAKEEEIESIKDIWSYCFNDTESFMKYYFNDKYKSENTVVALDEGKIISSLQLNQYKLLLNSKVYNTSYVVGVSTLPEGRGAGYMNKVMKFTLNELYKKGQLVSILMPIDYRLYRRFGYEHCYDQIEYTINTDDLKNFKSSGKMIKSNLSQIDDLIQIDRTFLNEVNGNVLKDEHYYENLFKEIQSEDGFLYIHEGNEKDGYIVYFLQEDKMFVRELFYKNIDALKSMLKFIYNHNTQCKIVTISTPTIDKIRFILDNPKDSDIKIKPFMMGRVINVKKFIEDIDIENDINSSFNLLIEDKFIDENNGLFKISIQNKKVSVEQLDKKGAEKPQEDFDIKLDINTLTQLSFSYIDVNEAIFLNDIKDVSEETLETLNCIFSKKNNYINEYI	not soluble
MAIGVQKKTSTPLDVGTEQEPTNLEKTIGTLRRCLQIAGTSNKPGSRSAKNSISEESNDLTMEESVPEASKWPHCQHMISQDEAPRNDELASPNIRIVAYKDESQINDIMRLITKDLSEPYSIYTYRYFLHNWPEYCFLAYDQTNNTYIGAVLCKLELDMYGRCKGYLAMLAVDESCRRLGIGTRLVRRALDAMQSKGCDEIVLETEVSNKNAQRLYSNLGFIRQKRLLKYYLNGGDAFRLKLIFTSRRVRSLNNQENYQPRCRVNEDDTPDEEEGTY	not soluble
MAKKVAVLAVNPVNGCGLFQYLEAFFENGISYKVFAVSDTKEIKTNSGMVLIVDDVIANLKGHEDEFDALVFSCGDAVPVFQQYANQPYNVDLMEVIKTFGEKGKMMIGHCAGAMMFDFTGITKGKKVAVHPLAKPAIQNGIATDEKSEIDGNFFTAQDENTIWTMLPKVIEALKLEHHHHHH	soluble
MRGSGQFRVIGPGHPIRALVGDEAELPCRISPGKNATGMEVGWYRSPFSRVVHLYRNGKDQDAEQAPEYRGRTELLKESIGEGKVALRIQNVRFSDEGGYTCFFRDAEYQEEAAVELKVEDPFYWINPGRSRSHHHHHH	soluble
NGEVEVPKTELEEIQQQCNQVTDDSLESTRRMLNMCEESKEAGIRTLVMLDEQGEQLDRIEEGLDQINQDMKDAEKNLEGMEK	soluble
MGSDKIHHHHHHLRLFGTKDEQLFMLFSESARVVVRGGDILQNVVNDYSDLDIKMAKLTAMEHEGDRIIQELIRRLNTSFILPFDREDAFQLAQKLSTTLDYITGIIDRMILYKTGRPNKRVKEMVNVLCEALFLQERALNLLQSLEHNKREILECCEEIRQLERKQDNHYRQGLALLFENEEEPIVIIKWREVYEHIEMAQDYVQDVAELISNICVKYS	not soluble
SADREGSVRVVGTAHVSSDSVEEVERVIDDEHPDTVAVELDEGRFRQMQGDAPDDLDATDLLKGSMAFQFLAYWLLSYAQRRLGEKFGIEPGADMQAAVDAANTAGADVALVDRDIQVTIQRFWARMSLPEKLRMGGELALGVTDSLTL	not soluble
MPVKKESNAELDLDWRCRDGSSLVASLQPKPDPQKTGNYRKAKVSTTVSIPTAKATGNAPKYLPPHLRNRQESENKEEDDESECNSDTEKHSVISDQFSDSVDETSVKKIRIHWRGRRWTRGIECIGVQVDSQITRYSKLDDKCVRKSNSGRETTQTGCISDFAFAEVARLLKTPEIELELFAVDVPPFIQGEPRESYFNAMEKTFNLENVTRVNAKRVRLIGLTISEMEAVLKWVSVENLVVIRVYSGKNSIDERGAIVIQNMLSIFPQLQVGSFHMIVSNPLGVAKTFDEIYSDRLVKTPIILKGLDEEPKFNMKITSCDIQVRRESKKKKVTQI	not soluble
MVRKALWKECLRIGGKVPLLNGEKLREIFRSGRGTGRFAKALGIEYGVDTSFNMLKVAKERGIKVALAKGENLPFKSETFDSVFLVVTICFVENPKQVLKEAHRVLKRDGKLYLGLILKESKWAKFYEEKAKNGHPFYKHARFYSFFELKEMVKDIFSFEEMKSTLLEEPQDSEPVKNKEIKPGFYENSGFTCIRLSKKLLEHHHHHH	not soluble
MPIPNNPGAGENAFDPVFVKDDDGYDLDSFMIPAHYKKYLTKVLVPNGVIKNRIEKLARDVMKEMGGHHIVALCVLKGGYKFFADLLDYIKALNRNSDRSIPMTVDFIRLKSYCNDQSTGDIKVIGGDDLSTLTGKNVLIVEDIIDTGKTMQTLLSLVRQYNPKMVKVACLFIKRTPLWNGFKADFVGFSIPDHFVVGYSLDYNEIFRDLDHCCLVNDEGKKKYKATSL	soluble
GPGSMLDFLEQLQQLASVYAICGNAVSVMAGMSDTAEELTFRSYDSLEGASYICNLNEKALHTAKASLCDNADWSSFFREVQLAFNSGRVTVQPGNAHRVAVNAAAPVSADSKGLACSMEVHCLSGSGEKCATFVLERTTEDQQKYILESMLQAHHMYNHPKEYEQKLLHIMEAKEIACTKREALDRELVALNDNLTRNKHKQKINNERKEELLKKLGGYSTENTGNPWQAIQEQQQRTAGENTKSRLPSPLGNRTCKDFDLVLFRMIKSRWLSPEQCDASSPANRVVQPYSKEDLAIQVSQLSGSRAAIWKALDSIDSWSYRVFDVQAAMSGDDYLSLSTQTHGGSLLITMYALLCMHDFLQKFKIDEQIALNWISAVEASYHGNPYHNSMHAADVLQITDFIITQGGLAKRCDLSDIQVFSALLAASIHDFDHPGINNNFHIKTGSYLATLYNDRSVLENLHVSSVFELMKNPAFNILASFSDEQHHEVRETMIEMVLATDMGSHGKYVASLKGKMQEHSSFTQTAEQNLCLAIALKMADISNCGRPLDIYLRWGAKVSDEFYQQGDRERNLGLECSPFMDRLQPSLAKSQIAFMNYIITPFFEQVAELLPDMRFAVALVEENKAYWANHDDS	soluble
